IntAct's records for PubMed 21596426

How the values were obtained:
h4_human H4C16 = h4_human H4C16 (UniProt P62805)
h32_human H3C13 = h32_human H3C13 (UniProt Q71DI3)

Nucleosome-remodeling factor subunit BPTF (Homo sapiens) (from UniProt Q12830-4) F2870A
effect of a mutation on the interaction (h4_human H4C16): disrupting interaction

Nucleosome-remodeling factor subunit BPTF (Homo sapiens) (from UniProt Q12830-4) W2748E
effect of a mutation on the interaction (h32_human H3C13): disrupting interaction
